{"source": "patent US20160324962A1", "about": "“COMPOSITIONS AND METHODS FOR TREATING SARCOMA” (MEDIMMUNE, LLC, priority 2013, published 2016)", "molecules": {"B1": {"name": "MEDI-573: fully human monoclonal IgG2 lambda antibody that binds IGF-2 with cross reactivity to IGF-1; hybridoma 7.159.2, ATCC PTA-7424 (antibody)", "heavy": "QVQLVQSGAEVKKPGASVKVSCKASGYTFTSYDINWVRQATGQGLEWMGWMNPNSGNTGYAQKFQGRVTMTRNTSISTAYMELSSLRSEDTAVYYCARDPYYYYYGMDVWGQGTTVTVSSASTKGPSVFPLAPCSRSTSESTAALGCLVKDYFPEPVTVSWNSGALTSGVHTFPAVLQSSGLYSLSSVVTVPSSNFGTQTYTCNVDHKPSNTKVDKTVERKCCVECPPCPAPPVAGPSVFLFPPKPKDTLMISRTPEVTCVVVDVSHEDPEVQFNWYVDGVEVHNAKTKPREEQFNSTFRVVSVLTVVHQDWLNGKEYKCKVSNKGLPAPIEKTISKTKGQPREPQVYTLPPSREEMTKNQVSLTCLVKGFYPSDIAVEWESNGQPENNYKTTPPMLDSDGSFFLYSKLTVDKSRWQQGNVFSCSVMHEALHNHYTQKSLSLSPGK", "light": "QSVLTQPPSVSAAPGQKVTISCSGSSSNIENNHVSWYQQLPGTAPKLLIYDNNKRPSGIPDRFSGSKSGTSATLGITGLQTGDEADYYCETWDTSLSAGRVFGGGTKLTVLGQPKAAPSVTLFPPSSEELQANKATLVCLISDFYPGAVTVAWKADSSPVKAGVETTTPSKQSNNKYAASSYLSLTPEQWKSHRSYSCQVTHEGSTVEKTVAPTECS"}}, "key": {"[1]": {"test_system": "KHOS cells", "experiment": "IGF-induced proliferation (CTG)", "format": "cell-based", "method": "(§1) To access the effect of MEDI-573 on IGF-Induced proliferation, MEDI-573 or isotype control, was added to the cells for 30 minutes at 37° C. IGF-1 or IGF-2 was then added to the appropriate wells and incubated for 3 days. Proliferation was quantified using the CTG reagent."}, "[2]": {"test_system": "RD cells", "experiment": "IGF-induced proliferation (CTG)", "format": "cell-based", "method": "as §1"}, "[3]": {"test_system": "SJSA-1 cells", "experiment": "IGF-induced proliferation (CTG)", "format": "cell-based", "method": "as §1"}, "[4]": {"test_system": "engineered NIH3T3 and human tumor cell lines", "experiment": "In vitro growth of engineered and tumor cell lines", "format": "cell-based", "excerpt": "MEDI 573 selectively binds to human insulin-like growth factor (hIGF)-I and hIGF-2 and […]. MEDI-573 targets the IGF-1 and IGF-2 ligands and thereby inhibits IGF-mediated signal transduction. […] Furthermore, MEDI-573 has potential to achieve this without perturbing glucose homeostasis, which has been an adverse effect observed with investigational agents that target IGF 1R. The results of in vitro studies have shown that MEDI-573 inhibited both IGF-1 and IGF-2-stimulated phosphorylation of IGF 1R and that of downstream signaling proteins including Akt and MAPK in a number of engineered mouse embryonic fibroblast NIH-3T3 cell lines transfected to express human IGF-1R and either human IGF-1/-2. Furthermore, MEDI-573 inhibited autocrine phosphorylation of these signaling molecules."}, "[5]": {"target": "murine IGF-1 (Mus musculus, UniProt P05017)", "sequence (P05017 1-118 limits assumed)": "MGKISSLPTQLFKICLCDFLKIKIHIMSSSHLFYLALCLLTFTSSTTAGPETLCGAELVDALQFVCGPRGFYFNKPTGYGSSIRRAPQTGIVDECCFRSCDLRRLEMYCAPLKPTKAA", "experiment": "Binding affinity"}, "[6]": {"test_system": "Akt phosphorylation", "experiment": "pAKT assay in sarcoma cells (MSD)", "format": "cell-based", "conditions": "RD-ES, TC-71, SK-ES-1, and SJSA-1 cells", "method": "When exogenous IGF-1 or IGF-2 was added to cells, there was an induction of phosphorylation of IGF-1R and IR-A in all cells examined.\nThe sarcoma lines were cultured overnight in complete medium. The following day, medium containing 0.1% charcoal stripped fetal bovine serum (FBS) was added to the cultures and the cultures incubated overnight. The next day, cells were treated with various treatments for 5 minutes. Media was removed; cells were washed and lysed with 1.0% Triton X lysis buffer with protease and phosphatase inhibitors. Approximately 8-20 μg of total protein was loaded on MSD 96-Well MULTI-SPOT plates and the level of total and phosphorylated IGF-1R, IR-A and IRS-1 protein was determined using the Insulin Signaling Panel (total protein) and Insulin Signaling Panel (phosphoprotein) Whole Cell Lysate kits according to the manufacturers protocol. The level of total and phosphorylated AKT was determined using the Phospho (Ser473)/Total AKT Assay Whole Cell Lysate kit according to manufacturer's standard protocol."}, "[7]": {"test_system": "pS6K", "experiment": "In vivo mechanism of action study, immunoblot of tumors", "conditions": "RD-ES-bearing mice injected with human IGF-1/-2, MEDI-573 pretreatment", "method": "IGF-1/-2 injection did change the baseline level of p4EBP-1.\nFor in vivo mechanism of action (MOA) studies, when tumors reached approximately 400 mm^3, a single dose of MEDI-573 was given. Tumor and plasma samples were collected 4 hr after dosing to assess the effect of MEDI-573 on autocrine IGF signaling. In another set of mice, 6 hr after MEDI-573 dosing, human IGF-1 or IGF-2 was injected by tail-vein. Tumor and plasma samples were collected 15 min after IGFs injection to assess the effect of MEDI-573 on IGF-1/-2 induced signaling."}, "[8]": {"test_system": "KHOS cells", "experiment": "Activation of caspase-3 and caspase-7", "format": "cell-based", "conditions": "increasing concentrations, 48 hours", "method": "(§2) To evaluate the basis for the cytotoxic effect of MEDI-573 on RD-ES, TC-71, SJSA-1, and KHOS cells, cells were treated with increasing concentrations of MEDI-573 for 48 hours and analyzed by measuring the activation of caspase-3 and caspase-7. […] (Data not shown.)"}, "[9]": {"test_system": "RD-ES cells", "experiment": "Activation of caspase-3 and caspase-7", "format": "cell-based", "conditions": "increasing concentrations, 48 hours, compared to isotype control", "method": "as §2"}, "[10]": {"test_system": "TC-71 cells", "experiment": "Activation of caspase-3 and caspase-7", "format": "cell-based", "conditions": "increasing concentrations, 48 hours, compared to isotype control", "method": "as §2"}, "[11]": {"test_system": "SJSA-1 cells", "experiment": "Activation of caspase-3 and caspase-7", "format": "cell-based", "conditions": "increasing concentrations, 48 hours, compared to isotype control", "method": "as §2"}}}
{"molecule": "B1", "values": [{"measurement": "IGF-1 IC50 (μM)", "setting": "[1]; KHOS cells stimulated with IGF-1", "value": "No Induction"}, {"measurement": "IGF-2 IC50 (μM)", "setting": "[1]; KHOS cells stimulated with IGF-2", "value": "No Induction"}, {"measurement": "effect on growth", "setting": "[1]; KHOS cells, with or without IGF stimulation", "value": "failed to have any significant effect"}, {"measurement": "IGF-1 IC50 (μM)", "setting": "[2]; RD cells stimulated with IGF-1", "value": "No Induction"}, {"measurement": "IGF-2 IC50 (μM)", "setting": "[2]; RD cells stimulated with IGF-2", "value": "No Induction"}, {"measurement": "effect on growth", "setting": "[2]; RD cells, with or without IGF stimulation", "value": "failed to have any significant effect"}, {"measurement": "IGF-1 IC50 (μM)", "setting": "[3]; SJSA-1 cells stimulated with IGF-1", "value": "No Induction"}, {"measurement": "IGF-2 IC50 (μM)", "setting": "[3]; SJSA-1 cells stimulated with IGF-2", "value": "No Induction"}, {"measurement": "growth in vitro", "setting": "[4]", "value": "effectively inhibited the growth"}, {"measurement": "binding affinity", "setting": "[5]", "value": "low binding affinity"}, {"measurement": "IGF-1 and IGF-2 stimulated phosphorylation of Akt", "setting": "[6]", "value": "blocks this effect"}, {"measurement": "autophosphorylation of Akt", "setting": "[6]", "value": "inhibited autophosphorylation"}, {"measurement": "IGF-induced pS6K in tumors", "setting": "[7]", "value": "dramatic reduction"}, {"measurement": "caspase-3/-7 activities", "setting": "[8]", "value": "No activation of caspase-3/-7 was detected"}, {"measurement": "caspase-3/-7 activities", "setting": "[9]", "value": "increased caspase-3/-7 activities in a dose-dependent manner"}, {"measurement": "caspase-3/-7 activities", "setting": "[10]", "value": "increased caspase-3/-7 activities in a dose-dependent manner"}, {"measurement": "caspase-3/-7 activities", "setting": "[11]", "value": "increased caspase-3/-7 activities in a dose-dependent manner"}]}
